Test results from patent US20190352405A1 (I MAB BIOPHARMA US, published 2019).

Tests used:
[1] = molecular target: T1, recombinant PD-L1 protein (human PD-L1-his taq) (human, UniProt Q9NZQ7 19-238); assay: SPR (Biacore T200), antibody captured by anti-human Fc on CM5 chip, PD-L1-his as analyte
T1 construct: also called human PD-L1-his taq protein; his-PDL1; not shown: his tag
Protocol: A series of dilutions of human PD-L1-his taq protein were injected over captured antibody for 3 mins at a flow rate of […]. The antigen was allowed to dissociate for 900s. All the experiments were carried out on a Biacore T200. Data analysis was carried out using Biacore T200 evaluation software.

[2] = molecular target: T2, PD-L1 expressed on Raji cells (PDL1-Raji cells) (UniProt Q9NZQ7 19-290, limits assumed); assay: FACS on PDL1-Raji cells, Alexa 488 anti-human IgG secondary antibody, MFI; the EC50 table has no unit, nM is taken from the x axis (Log [Conc.] / nM)
T2 construct: whole, on cells; also called mammalian expressed PD-L1
T2 sequence (Q9NZQ7 19-290 limits assumed): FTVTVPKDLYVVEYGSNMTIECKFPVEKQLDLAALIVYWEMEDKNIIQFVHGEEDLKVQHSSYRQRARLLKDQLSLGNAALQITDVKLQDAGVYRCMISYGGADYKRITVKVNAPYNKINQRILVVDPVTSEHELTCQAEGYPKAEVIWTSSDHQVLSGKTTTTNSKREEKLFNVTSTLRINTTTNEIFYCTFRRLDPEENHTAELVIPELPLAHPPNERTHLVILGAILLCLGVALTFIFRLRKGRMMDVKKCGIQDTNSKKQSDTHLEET
Protocol: After washing by FACS buffer (PBS with 2% FBS), the Alexa 488-anti-human IgG antibody was added to each well and incubated at RT for 1 hour. The MFI of Alexa 488 were evaluated by FACSAriaIII.

[3] = molecular target: T3, IL7 receptor (IL7R) on human primary CD4+ T cells (human, UniProt P16871 21-459); assay: FACS on human primary CD4+ T cells, 4 °C for 30 min, PE anti-human Fc secondary antibody, MFI; fit value printed for a nearly flat control curve; the EC50 column has no unit, nM is taken from the x axis (Log [Conc.] / nM)
T3 construct: whole, on cells; Native receptor on cells; also called surface IL7R; CD127 (IL7Ra)
T3 sequence (looked up): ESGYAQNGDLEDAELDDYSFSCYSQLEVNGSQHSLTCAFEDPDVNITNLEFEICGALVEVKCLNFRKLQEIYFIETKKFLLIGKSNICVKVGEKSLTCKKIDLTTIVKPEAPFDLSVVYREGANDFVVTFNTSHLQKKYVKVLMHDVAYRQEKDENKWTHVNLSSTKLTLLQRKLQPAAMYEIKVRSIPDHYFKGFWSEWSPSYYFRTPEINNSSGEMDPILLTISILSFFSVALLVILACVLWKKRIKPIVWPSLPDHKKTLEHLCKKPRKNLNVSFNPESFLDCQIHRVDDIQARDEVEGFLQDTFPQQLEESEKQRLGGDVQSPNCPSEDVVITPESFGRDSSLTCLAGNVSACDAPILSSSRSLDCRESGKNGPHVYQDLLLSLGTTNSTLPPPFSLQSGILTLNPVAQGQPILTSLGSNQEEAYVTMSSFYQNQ
Protocol: PE-conjugated anti-human Fc secondary antibody were used to detect the fusion molecules that bound to the IL7R of CD4⁺ T cells by FACS. […] For ligation-mediated receptor internalization assay, human primary CD4⁺ T cells were cocultured with fusion molecules at 37° C. for 15 mins. PE-cy7-conjugated-anti-CD127 (IL7Ra) antibody was used to detect the surface IL7R by FACS.

T1 sequence (Q9NZQ7 19-238 limits assumed): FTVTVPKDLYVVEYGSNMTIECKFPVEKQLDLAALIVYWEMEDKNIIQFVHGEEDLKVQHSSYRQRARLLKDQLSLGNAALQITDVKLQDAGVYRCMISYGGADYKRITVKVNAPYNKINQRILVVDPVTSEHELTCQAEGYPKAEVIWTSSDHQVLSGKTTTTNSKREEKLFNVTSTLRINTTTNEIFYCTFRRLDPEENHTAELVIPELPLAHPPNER

- Kd [1]: 2.09 nM
- koff [1]: 0.000178 s⁻¹
- kon [1]: 85000 M⁻¹ s⁻¹
- EC50 [2]: 7.99 nM
- EC50 [3]: 35 nM
B1: Anti-PDL1 mAb (antibody, V domains shown)
VH: EVQLVESGGGLVQPGGSLRLSCAASGFTFSSYDMSWVRQAPGKSLEWVATISDAGGYIYYSDSVKGRFTISRDNAKNSLYLQMNSLRDEDTAVYICAREFGKRYALDYWGQGTTVTVSS
VL: DIQMTQSPSSLSASVGDRVTITCKASQDVTPAVAWYQQKPGKAPKLLIYSTSSRYTGVPSRFSGSGSGTDFTFTISSLQPEDIATYYCQQHYTTPLTFGQGTKLEIK
notes: also called anti-PDL1 monoclonal antibody; anti-PDL1 antibody
